Laboratory results reported in paper doi:10.1101/2025.10.24.684422.
Values belong to the substance of their own block, whether it stands above or below them.

Experiments:
[1] = molecular target: HSL3 ectodomain Gln120Ala (Arabidopsis thaliana); assay: ITC
[2] = molecular target: HAESA-LIKE 3 (HSL3) ectodomain, wild type (Arabidopsis thaliana); assay: ITC

Substance: CTNIP4(46-70)_(Cys-Cys) (peptide)
fold reduction in binding affinity against wild-type HSL3 [1]: 60 fold

Substance: CTNIP4(48-70)_(Cys-Cys) (peptide)
fold loss of affinity against CTNIP4(46-70) (Cys-Cys) [2]: 200 fold

Substance: CTNIP4^C58A.C68A(46-70) (peptide)
fold impairment of binding against CTNIP4(46-70) (Cys-Cys) [2]: 200 fold

Next, values leading:

fold reduction in binding against CTNIP4(46-70) (Cys-Cys) [2]: 4 fold
Substance: CTNIP4(47-70)_(Cys-Cys) (peptide)

fold reduction in binding affinity against CTNIP4(46-70) (Cys-Cys) [2]: 200 fold
Substance: CTNIP4^C58A(46-63) (peptide)

fold reduction in binding affinity against CTNIP4(46-70) (Cys-Cys) [2]: 120 fold
Substance: CTNIP4^I61Y (peptide)
